Experimental data published in patent publication US9610371B2, “Anticancer therapy” (STC.UNM, priority 2005, dated 2017).
Read-outs that look alike come from different tables or passages of the source.

How the values were obtained:
[1] = 25 day toxicology in tumor bearing male Lewis rats; format: in vivo, Lewis rat; settings: rat, in vivo
Protocol: Toxicology was assessed at 25 days in 4 groups of tumor bearing male Lewis rats (average volume […]). Rats in the first group, Cohort 1, were injected on day 1 only. Rats in second cohort were injected on days 1 and 2, while rats in the third cohort were injected on days 1, 2, and 3. Rats were injected with 2.56 μg, 0.5 μg, 0.5 μg DOTATOC, on day 1, day 2 and day 3, respectively, with a nominal activity of 3.7 MBq. Each dose was divided into 2 injections at 1 hour intervals. The rats received the following cumulative average activities per group: Cohort 1 (N=3) received 4.3±0.7 MBq, Cohort 2 (N=3) received 9.0±0.4 MBq, and Cohort 3 (N=4) received 12.6±0.3 MBq of ^213Bi-DOTATOC. Cohort 4 (N=4) was added as control group and injected twice daily with unlabelled DOTATOC on three consecutive days.
After 24 days, the animals were put into a metabolic cage to collect urine samples for creatinine clearance analysis. Creatine clearance was determined as previously described (20). After 24 hour urine collection, the animals were euthanized with halothane. For blood collection, a cardiac puncture was performed. Blood analysis consisted of hemoglobin (Hgb), hematocrit (Hct), red blood cells (RBC's), and white blood cells (WBC's) with differential, and platelets (Pt's). Additionally T4 and FSH values were assessed using the serum.
Additional groups were then designed to study the effects of the treatment on a somatostatin receptor positive tumor. The first group was designed to study the effects of treatment on large volume tumors (average volume 1720±608 mm^3). This group, Cohort 5 (N=5), received three fractionated doses of ^213Bi-DOTATOC (specific activity 7.4 MBq ^213Bi/1 μG DOTATOC) with a total average cumulative dose of 13.0±0.5 MBq of ^213Bi-DOTATOC. The last cohort, the sixth cohort (N=4), was injected with two fractionated doses, ^213Bi-DOTATOC (specific activity 7.4 MBq ^213Bi/1 μG DOTATOC) with a total average cumulative dose of 22.2±0.7 MBq of ^213Bi-DOTATOC. As described earlier, each dose was divided into 2 injections separated by a 1 hour interval. Tumor response to the treatment was assessed in all cohorts by daily tumor measurements.
(§1) Organs were harvested and immediately placed in 10% formalin for a minimum of 48 hours. Following fixation in formalin, bone samples were placed in decalcifying solution for 36 hours. Trimmed organs were sent to the TriCore Laboratories (Albuquerque, N. Mex.) where they were embedded in paraffin, sectioned, and stained with Hematoxylin and Eosin (H and E). Histopathologic evaluation was performed by a board certified veterinary pathologist (DFK) who examined the following organs of each animal: heart, lung, kidneys, testicles, spleen, pancreas, pituitary bone marrow, urinary bladder, adrenals, and two different sections of the liver.
(§2) Sections of both the right and left kidneys were examined to determine nephrotoxicity in all cohorts. Bone marrow was examined to evaluate hypoplasia and other lesions in Cohorts 3 and 4. Interstitial nephritis and bone marrow were scored as follows: 0 no lesions, 1 minimal lesions, 2 mild lesions, 3 moderate lesions, and 4 severe lesions.
(§3) For the pathology scoring, to evaluate nephrotoxicity on the 6 treatment groups, a frequency analysis was performed in StatXact-5 using the Jonckheere-Terpstra Test. For all other data, graphs and calculations were performed in SigmaStat®-3 and SigmaPlot®-9 as well as Graph Pad Prism®-4 using the t-test. For all statistical tests results were considered significant when p<0.05. Animal biodistribution and tumor volume data are expressed as the average, plus or minus the SEM.

[2] = rat, in vivo
Protocol: A 26 week toxicology study was performed in 3 groups of rats. The first group, Cohort 7 (N=3), received three fractionated doses ^213Bi-DOTATOC (specific activity 7.4 MBq ^213Bi/1 μG DOTATOC with a total average cumulative dose of 12.75±1.1 MBq. The second group, Cohort 8 (N=3), received D-lysine (concentration 400 mg/mL) immediately before receiving three fractionated doses ^213Bi-DOTATOC with a specific activity 7.4 MBq ^213Bi/1 μG DOTATOC with a total average cumulative dose of 11.39±0.14 MBq. The third group, cohort 9 (N=3) received 3 fractionated doses of DOTATOC. Rats were injected with 2.56 μg, 0.5 μg, 0.5 μg DOTATOC, on day 1, day 2 and day 3, respectively. As described earlier, each dose was divided into 2 injections separated by a 1 hour interval.
as §1, §2

[3] = Biodistribution in tumor bearing and non-tumor bearing rats; settings: rat, in vivo
Protocol: FIG. 13: A, B Graphical comparisons of Tumor and Non-Tumor Bearing Rats at 1 hour post injection of ^213Bi-DOTATOC. Columns, means, Bars, SEM, white columns represent non-tumor bearing rats and black columns represent tumor bearing rats. Significance of p<0.05 is represented by a (*).
as §3

[4] = as above; settings: rat, in vivo, total radioactivity

In the case of `C[C@@H](O)[C@@H]1NC(=O)[C@H](CCCCN)NC(=O)[C@@H](Cc2c[nH]c3ccccc23)NC(=O)[C@H](Cc2ccc(O)cc2)NC(=O)[C@@H](NC(=O)[C@@H](Cc2ccccc2)NC(=O)CN2CCN(CC(=O)O)CCN(CC(=O)O)CCN(CC(=O)O)CC2)CSSC[C@@H](C(=O)N[C@H](CO)[C@@H](C)O)NC1=O` [^213Bi-DOTATOC, metal not drawn], the “FSH values vs control animals” value [1] is reported as “No significant changes”, the “average histopathologic score for nephrititis” value [1] is reported as 1 and the “hematology results vs control group” value [1] is reported as “did not show any significant differences”. For the same molecule, the “histopathological examination of heart, lungs, liver, spleen, urinary bladder” value [1] was “no evidence of treatment induced toxicity”, the “histopathology of testes, adrenals, pancreas” value [1] was “No histopathologic abnormalities” and the “likelihood of interstitial nephrititis with dose” value [1] was “increased with increasing dose”. The nephrotoxicity with low-dose [1] was “minimal nephrotoxicity”, the “toxicity in the high-dose treatment cohort (kidney)” value [1] was “Minimal toxicity” and the “FSH or T4 serum values vs control animals” value [2] was “No significant changes”. For the same molecule, the adrenal histopathology [2] was “minimal nodular cortical hyperplasia in both adrenals”, the “creatinine clearance vs control group (DOTATOC only)” value [2] was “No difference” and the “hematology results vs control group” value [2] was “did not show any significant differences”. The liver histopathology [2] was “mild or moderate cholangiohepatitis and perivasculitits”, the lung histopathology [2] was “minimal to mild interstitial pneumonia” and the “microcystic degeneration in the pituitary” value [2] was “mild to moderate”. For the same molecule, the microcystic pancreatic degeneration [2] was “mild to moderate”, the “rats with one adrenal each with nodular cortical hyperplasia” value [2] was 2 rats and the “localization in stomach and muscle, tumor vs non-tumor bearing rats” value [3] was “significantly higher”. The tissue uptake at 3 h ([4]; accumulation of radioactivity in the blood) was 0.02 %ID/g, the tissue uptake at 3 h ([4]; accumulation of radioactivity in the bone marrow) was 0.06 ± 0.02 %ID/g and the tissue uptake at 3 h ([4]; accumulation of radioactivity in the kidneys) was 11.2 ± 0.46 %ID/g. It also gave a tissue uptake at 3 h ([4]; accumulation of radioactivity in the liver) of 0.14 ± 0.02 %ID/g, a tissue uptake at 3 h ([4]; accumulation of radioactivity in the spleen) of 0.08 ± 0.01 %ID/g and a tissue uptake at 3 h ([4]; accumulation of radioactivity in the stomach) of 0.08 ± 0.01 %ID/g. The tissue uptake at 3 h ([4]; accumulation of radioactivity in the testis) was 0.02 %ID/g.
